EC50 data for 11 molecules are collected here from patent US20100260668A1 (published 2010).

One may read the EC50 as the concentration at which the effect is half-maximal. The low end stands for greater potency, the high end for weaker potency.

Assay [1] deals with T1, DLL4 (DLL4 ECD/His tag, R&D Systems 1506-D4-050) (UniProt Q9NR61 27-529).
T1 construct: extracellular domain; not shown: His tag
The assay is described as follows: Direct bind ELISA on DLL4; DLL4 domain C-term., HC long, LC long. In general terms: An ELISA detects its analyte on a solid surface through an enzyme-linked reagent.

In assay [2] the target is T1, DLL4 (DLL4 ECD/His tag, R&D Systems …). As to the kind of experiment: Direct bind ELISA on DLL4; DLL4 domain C-term., HC long, LC short.
The target is the same in assay [3]. As to the kind of experiment: Direct bind ELISA on DLL4; DLL4 domain N-term., HC long, LC short.
The target is the same in assay [4]. As to the kind of experiment: Direct bind ELISA on DLL4; DLL4 domain N-term., HC short, LC long.

B1: DVD520 (VEGF/DLL4 DVD-Ig) (bispecific antibody, human IgG1)
VH: EVQLVESGGGLVQPGGSLRLSCAASGFTISDYWIHWVRQAPGKGLEWVAGITPAGGYTYYADSVKGRFTISADTSKNTAYLQMNSLRAEDTAVYYCARFVFFLPYAMDYWGQGTLVTVSSASTKGPSVFPLAPEVQLQQSGPELEKPGASVKISCKASGYSFTGYNMNWVKQSNGKSLEWIGNIDPYFGGTNYNQKFKGKATLTVDKSSSTAYMQLKSLTSEDSAVYYCARNYDYDGGCFDYWGQGTTLTVSS
VL: DIQMTQSPSSLSASVGDRVTITCRASQDVSTAVAWYQQKPGKAPKLLIYSASFLYSGVPSRFSGSGSGTDFTLTISSLQPEDFATYYCQQSYTTPPTFGQGTKVEIKRTVAAPSVFIFPPQAVVTQESALTTSPGETVTLTCRSSTGAVTTSNYANWVQEKPDHLFTGLIGGTNNRAPGVPARFSGSLIGDKAALTITGAQTEDEAIYFCALWYSNHWVFGGGTKLTVLG
notes: HC linker long, LC linker long; also called DVD520H; DVD520L
In assay [1], B1 yielded an EC50 of 17.3 nM.

B2: DVD526 (VEGF/DLL4 DVD-Ig) (bispecific antibody, human IgG1)
VH: EVQLVESGGGLVQPGGSLRLSCAASGFTISDYWIHWVRQAPGKGLEWVAGITPAGGYTYYADSVKGRFTISADTSKNTAYLQMNSLRAEDTAVYYCARFVFFLPYAMDYWGQGTLVTVSSASTKGPSVFPLAPEVQLQQSGPELEKPGASVKISCKASGYSFTGYNMNWVKQSNGKSLEWIGNIDPYFGGTNYNQKFKGKATLTVDKSSSTAYMQLKSLTSEDSAVYYCARNYDYDGGCFDYWGQGTTLTVSS
VL: DIQMTQSPSSLSASVGDRVTITCRASQDVSTAVAWYQQKPGKAPKLLIYSASFLYSGVPSRFSGSGSGTDFTLTISSLQPEDFATYYCQQSYTTPPTFGQGTKVEIKRTVAAPQAVVTQESALTTSPGETVTLTCRSSTGAVTTSNYANWVQEKPDHLFTGLIGGTNNRAPGVPARFSGSLIGDKAALTITGAQTEDEAIYFCALWYSNHWVFGGGTKLTVLG
notes: HC linker long, LC linker short; also called DVD526H; DVD526L
In the case of B2, a half-maximal response in assay [2] (EC50) required 1.57 nM.

B3: DVD525 (DLL4/VEGF DVD-Ig) (bispecific antibody, human IgG1)
VH: EVQLQQSGPELEKPGASVKISCKASGYSFTGYNMNWVKQSNGKSLEWIGNIDPYFGGTNYNQKFKGKATLTVDKSSSTAYMQLKSLTSEDSAVYYCARNYDYDGGCFDYWGQGTTLTVSSASTKGPSVFPLAPEVQLVESGGGLVQPGGSLRLSCAASGFTISDYWIHWVRQAPGKGLEWVAGITPAGGYTYYADSVKGRFTISADTSKNTAYLQMNSLRAEDTAVYYCARFVFFLPYAMDYWGQGTLVTVSS
VL: QAVVTQESALTTSPGETVTLTCRSSTGAVTTSNYANWVQEKPDHLFTGLIGGTNNRAPGVPARFSGSLIGDKAALTITGAQTEDEAIYFCALWYSNHWVFGGGTKLTVLGQPKAAPDIQMTQSPSSLSASVGDRVTITCRASQDVSTAVAWYQQKPGKAPKLLIYSASFLYSGVPSRFSGSGSGTDFTLTISSLQPEDFATYYCQQSYTTPPTFGQGTKVEIKR
notes: HC linker long, LC linker short; also called DVD525H; DVD525L
In assay [3], B3 registered an EC50 of 1 nM.

B4: DVD501 (DLL4/VEGF DVD-Ig) (bispecific antibody, human IgG1)
VH: EVQLQQSGPELVKPGASVKMSCKASGYTFTSYVINWVKQKPGQGLEWIGLINPYNDGTKYNEKFKVKATLTSDKSSSTAYMELSSLTSEDSAVYYCASYYYGSRYYFDYWGQGTTLTVSSASTKGPSVFPLAPEVQLVESGGGLVQPGGSLRLSCAASGFTISDYWIHWVRQAPGKGLEWVAGITPAGGYTYYADSVKGRFTISADTSKNTAYLQMNSLRAEDTAVYYCARFVFFLPYAMDYWGQGTLVTVSS
VL: DIQMTQSSSYLSVSLGGRVTITCKASDHINNWLAWYQQKPGNAPRLLISGATSLETGVPSRFSGSGSGKDYTLSITSLQTEDVATYYCQQYWSIPLTFGAGTKLELKRTVAAPDIQMTQSPSSLSASVGDRVTITCRASQDVSTAVAWYQQKPGKAPKLLIYSASFLYSGVPSRFSGSGSGTDFTLTISSLQPEDFATYYCQQSYTTPPTFGQGTKVEIKR
notes: HC linker long, LC linker short; also called DVD501H; DVD501L
Molecule B4 returned a concentration giving a half-maximal response (EC50) in assay [3] of 0.18 nM.

B5: DVD456 (VEGF/DLL4 DVD-Ig) (bispecific antibody, human IgG1)
VH: EVQLVESGGGLVQPGGSLRLSCAASGFTISDYWIHWVRQAPGKGLEWVAGITPAGGYTYYADSVKGRFTISADTSKNTAYLQMNSLRAEDTAVYYCARFVFFLPYAMDYWGQGTLVTVSSASTKGPSVFPLAPQVQLVQSGAEVKKPGASVKISCKASGYSFTAYYIHWVKQAPGQGLEWIGYISSYNGATNYNQKFKGRVTFTTDTSTSTAYMELRSLRSDDTAVYYCARDYDYDVGMDYWGQGTLVTVSS
VL: DIQMTQSPSSLSASVGDRVTITCRASQDVSTAVAWYQQKPGKAPKLLIYSASFLYSGVPSRFSGSGSGTDFTLTISSLQPEDFATYYCQQSYTTPPTFGQGTKVEIKRTVAAPDIVMTQSPDSLAVSLGERATISCRASESVDNYGISFMKWFQQKPGQPPKLLIYAASNQGSGVPDRFSGSGSGTDFTLTISSLQAEDVAVYYCQQSKEVPWTFGGGTKVEIKR
notes: HC linker long, LC linker short; also called DVD456H; DVD456L
In turn, B5 had a 50% effective concentration (EC50) in assay [2] of 2.48 nM.

B6: DVD496 (VEGF/DLL4 DVD-Ig) (bispecific antibody, human IgG1)
VH: EVQLVESGGGLVQPGGSLRLSCAASGFTISDYWIHWVRQAPGKGLEWVAGITPAGGYTYYADSVKGRFTISADTSKNTAYLQMNSLRAEDTAVYYCARFVFFLPYAMDYWGQGTLVTVSSASTKGPSVFPLAPEVQLQQSGPELVKPGASVKMSCKASGYTFTSYVINWVKQKPGQGLEWIGLINPYNDGTKYNEKFKVKATLTSDKSSSTAYMELSSLTSEDSAVYYCASYYYGSRYYFDYWGQGTTLTVSS
VL: DIQMTQSPSSLSASVGDRVTITCRASQDVSTAVAWYQQKPGKAPKLLIYSASFLYSGVPSRFSGSGSGTDFTLTISSLQPEDFATYYCQQSYTTPPTFGQGTKVEIKRTVAAPSVFIFPPDIQMTQSSSYLSVSLGGRVTITCKASDHINNWLAWYQQKPGNAPRLLISGATSLETGVPSRFSGSGSGKDYTLSITSLQTEDVATYYCQQYWSIPLTFGAGTKLELKR
notes: HC linker long, LC linker long; also called DVD496H; DVD496L
The molecule B6 came in with an EC50 in assay [1] of 5.59 nM.

B7: DVD502 (VEGF/DLL4 DVD-Ig) (bispecific antibody, human IgG1)
VH: EVQLVESGGGLVQPGGSLRLSCAASGFTISDYWIHWVRQAPGKGLEWVAGITPAGGYTYYADSVKGRFTISADTSKNTAYLQMNSLRAEDTAVYYCARFVFFLPYAMDYWGQGTLVTVSSASTKGPSVFPLAPEVQLQQSGPELVKPGASVKMSCKASGYTFTSYVINWVKQKPGQGLEWIGLINPYNDGTKYNEKFKVKATLTSDKSSSTAYMELSSLTSEDSAVYYCASYYYGSRYYFDYWGQGTTLTVSS
VL: DIQMTQSPSSLSASVGDRVTITCRASQDVSTAVAWYQQKPGKAPKLLIYSASFLYSGVPSRFSGSGSGTDFTLTISSLQPEDFATYYCQQSYTTPPTFGQGTKVEIKRTVAAPDIQMTQSSSYLSVSLGGRVTITCKASDHINNWLAWYQQKPGNAPRLLISGATSLETGVPSRFSGSGSGKDYTLSITSLQTEDVATYYCQQYWSIPLTFGAGTKLELKR
notes: HC linker long, LC linker short; also called DVD502H; DVD502L
Molecule B7 gave an EC50 in assay [2] of 3.17 nM.

B8: DVD477 (DLL4/VEGF DVD-Ig) (bispecific antibody, human IgG1)
VH: EVQLVESGGGLVQPGGSLRLSCAASGFTFTDNWISWVRQAPGKGLEWVGYISPNSGFTYYADSVKGRFTISADTSKNTAYLQMNSLRAEDTAVYYCARDNFGGYFDYWGQGTLVTVSSASTKGPSVFPLAPEVQLVESGGGLVQPGGSLRLSCAASGFTISDYWIHWVRQAPGKGLEWVAGITPAGGYTYYADSVKGRFTISADTSKNTAYLQMNSLRAEDTAVYYCARFVFFLPYAMDYWGQGTLVTVSS
VL: DIQMTQSPSSLSASVGDRVTITCRASQDVSTAVAWYQQKPGKAPKLLIYSASFLYSGVPSRFSGSGSGTDFTLTISSLQPEDFATTYYCQQSYTGTVTFGQGTKVEIKRTVAAPDIQMTQSPSSLSASVGDRVTITCRASQDVSTAVAWYQQKPGKAPKLLIYSASFLYSGVPSRFSGSGSGTDFTLTISSLQPEDFATYYCQQSYTTPPTFGQGTKVEIKR
notes: HC linker long, LC linker short; also called DVD477H; DVD477L
For B8, the EC50 in assay [3] worked out at 0.69 nM.

B9: DVD478 (VEGF/DLL4 DVD-Ig) (bispecific antibody, human IgG1)
VH: EVQLVESGGGLVQPGGSLRLSCAASGFTISDYWIHWVRQAPGKGLEWVAGITPAGGYTYYADSVKGRFTISADTSKNTAYLQMNSLRAEDTAVYYCARFVFFLPYAMDYWGQGTLVTVSSASTKGPSVFPLAPEVQLVESGGGLVQPGGSLRLSCAASGFTFTDNWISWVRQAPGKGLEWVGYISPNSGFTYYADSVKGRFTISADTSKNTAYLQMNSLRAEDTAVYYCARDNFGGYFDYWGQGTLVTVSS
VL: DIQMTQSPSSLSASVGDRVTITCRASQDVSTAVAWYQQKPGKAPKLLIYSASFLYSGVPSRFSGSGSGTDFTLTISSLQPEDFATYYCQQSYTTPPTFGQGTKVEIKRTVAAPDIQMTQSPSSLSASVGDRVTITCRASQDVSTAVAWYQQKPGKAPKLLIYSASFLYSGVPSRFSGSGSGTDFTLTISSLQPEDFATTYYCQQSYTGTVTFGQGTKVEIKR
notes: HC linker long, LC linker short; also called DVD478H; DVD478L
Consider B9, for which the half-maximal effective concentration (EC50) in assay [2] came to 2.53 nM.

B10: DVD483 (DLL4/VEGF DVD-Ig) (bispecific antibody, human IgG1)
VH: EVQLVESGGGLVQPGGSLRLSCAASGFTFTDNWISWVRQAPGKGLEWVGYISPNSGFTYYADSVKGRFTISADTSKNTAYLQMNSLRAEDTAVYYCARDNFGGYFDYWGQGTLVTVSSASTKGPEVQLVESGGGLVQPGGSLRLSCAASGFTISDYWIHWVRQAPGKGLEWVAGITPAGGYTYYADSVKGRFTISADTSKNTAYLQMNSLRAEDTAVYYCARFVFFLPYAMDYWGQGTLVTVSS
VL: DIQMTQSPSSLSASVGDRVTITCRASQDVSTAVAWYQQKPGKAPKLLIYSASFLYSGVPSRFSGSGSGTDFTLTISSLQPEDFATTYYCQQSYTGTVTFGQGTKVEIKRTVAAPSVFIFPPDIQMTQSPSSLSASVGDRVTITCRASQDVSTAVAWYQQKPGKAPKLLIYSASFLYSGVPSRFSGSGSGTDFTLTISSLQPEDFATYYCQQSYTTPPTFGQGTKVEIKR
notes: HC linker short, LC linker long; also called DVD483H; DVD483L
In assay [4], B10 yielded a concentration for a half-maximal effect (EC50) of 0.63 nM.

B11: DVD455 (DLL4/VEGF DVD-Ig) (bispecific antibody, human IgG1)
VH: QVQLVQSGAEVKKPGASVKISCKASGYSFTAYYIHWVKQAPGQGLEWIGYISSYNGATNYNQKFKGRVTFTTDTSTSTAYMELRSLRSDDTAVYYCARDYDYDVGMDYWGQGTLVTVSSASTKGPSVFPLAPEVQLVESGGGLVQPGGSLRLSCAASGFTISDYWIHWVRQAPGKGLEWVAGITPAGGYTYYADSVKGRFTISADTSKNTAYLQMNSLRAEDTAVYYCARFVFFLPYAMDYWGQGTLVTVSS
VL: DIVMTQSPDSLAVSLGERATISCRASESVDNYGISFMKWFQQKPGQPPKLLIYAASNQGSGVPDRFSGSGSGTDFTLTISSLQAEDVAVYYCQQSKEVPWTFGGGTKVEIKRTVAAPDIQMTQSPSSLSASVGDRVTITCRASQDVSTAVAWYQQKPGKAPKLLIYSASFLYSGVPSRFSGSGSGTDFTLTISSLQPEDFATYYCQQSYTTPPTFGQGTKVEIKR
notes: HC linker long, LC linker short; also called DVD455H; DVD455L
In the case of B11, the half-maximal effective concentration (EC50) in assay [3] was 0.24 nM.
